# Source: the supplement of paper PMC10065799, “High-throughput profiling of sequence recognition by tyrosine kinases and SH2 domains using bacterial peptide display” (eLife, 2023)
# Key:
# AncSZ = assay: phosphorylation enrichment, bacterial display (enrichment ratio); higher = better substrate or ligand; peptides without Tyr show the background
# EPHB1 = EPHB1 (UniProt P54762); assay: as above
# EPHB2 = EPHB2 (UniProt P29323); assay: as above
# FGFR1 = FGFR1 (UniProt P11362); assay: as above
# FGFR3 = FGFR3 (UniProt P22607); assay: as above
# Chain of FGFR3 (P22607 whole entry, looked up): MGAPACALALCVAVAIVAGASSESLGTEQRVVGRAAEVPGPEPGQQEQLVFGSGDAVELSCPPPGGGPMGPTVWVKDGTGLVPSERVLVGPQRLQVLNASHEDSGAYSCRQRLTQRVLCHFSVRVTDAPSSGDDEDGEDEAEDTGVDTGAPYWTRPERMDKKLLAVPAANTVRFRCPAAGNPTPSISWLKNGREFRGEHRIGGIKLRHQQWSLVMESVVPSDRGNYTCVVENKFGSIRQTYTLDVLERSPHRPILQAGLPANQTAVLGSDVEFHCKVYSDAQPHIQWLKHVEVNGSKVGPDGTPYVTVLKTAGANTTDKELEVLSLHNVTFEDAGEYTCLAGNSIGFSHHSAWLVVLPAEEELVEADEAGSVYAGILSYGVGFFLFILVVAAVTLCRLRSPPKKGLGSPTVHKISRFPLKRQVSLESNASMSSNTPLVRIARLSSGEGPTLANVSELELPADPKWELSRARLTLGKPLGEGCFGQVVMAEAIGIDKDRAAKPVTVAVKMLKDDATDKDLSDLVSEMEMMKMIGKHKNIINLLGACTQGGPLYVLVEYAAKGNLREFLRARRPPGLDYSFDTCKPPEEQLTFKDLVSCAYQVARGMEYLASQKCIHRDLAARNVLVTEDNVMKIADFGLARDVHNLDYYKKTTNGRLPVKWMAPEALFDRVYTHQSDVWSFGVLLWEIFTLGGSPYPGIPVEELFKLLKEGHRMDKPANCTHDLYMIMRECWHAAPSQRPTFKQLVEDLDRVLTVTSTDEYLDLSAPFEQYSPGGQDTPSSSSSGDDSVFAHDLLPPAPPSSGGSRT
# Fer (mouse) = assay: as above
# Fes = Fes (UniProt P07332); assay: as above
# Chain of Fes (P07332 whole entry, looked up): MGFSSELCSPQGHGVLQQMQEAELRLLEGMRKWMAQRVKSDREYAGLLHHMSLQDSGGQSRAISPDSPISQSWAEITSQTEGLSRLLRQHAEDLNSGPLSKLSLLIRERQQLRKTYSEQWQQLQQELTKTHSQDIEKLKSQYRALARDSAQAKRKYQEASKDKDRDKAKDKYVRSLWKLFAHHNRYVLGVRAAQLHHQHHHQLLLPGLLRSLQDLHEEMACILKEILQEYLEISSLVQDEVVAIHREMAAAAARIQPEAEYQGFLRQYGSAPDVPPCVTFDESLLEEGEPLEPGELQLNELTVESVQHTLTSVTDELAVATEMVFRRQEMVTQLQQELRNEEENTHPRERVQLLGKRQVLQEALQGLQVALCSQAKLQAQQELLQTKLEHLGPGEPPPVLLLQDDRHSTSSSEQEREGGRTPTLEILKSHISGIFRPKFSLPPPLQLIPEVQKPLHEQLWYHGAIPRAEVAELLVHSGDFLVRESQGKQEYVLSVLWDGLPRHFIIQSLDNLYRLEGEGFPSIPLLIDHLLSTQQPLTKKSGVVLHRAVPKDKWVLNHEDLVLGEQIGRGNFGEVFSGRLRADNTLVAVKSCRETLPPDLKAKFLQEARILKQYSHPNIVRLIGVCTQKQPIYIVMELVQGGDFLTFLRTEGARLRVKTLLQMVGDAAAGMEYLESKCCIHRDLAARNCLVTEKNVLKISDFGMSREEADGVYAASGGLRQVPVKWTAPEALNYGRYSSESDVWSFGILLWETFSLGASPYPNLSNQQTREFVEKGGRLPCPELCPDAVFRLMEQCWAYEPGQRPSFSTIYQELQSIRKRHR
# Fyn = Fyn (UniProt P06241); assay: as above
# Hck = Hck (UniProt P08631); assay: as above
# Chain of Hck (P08631 whole entry, looked up): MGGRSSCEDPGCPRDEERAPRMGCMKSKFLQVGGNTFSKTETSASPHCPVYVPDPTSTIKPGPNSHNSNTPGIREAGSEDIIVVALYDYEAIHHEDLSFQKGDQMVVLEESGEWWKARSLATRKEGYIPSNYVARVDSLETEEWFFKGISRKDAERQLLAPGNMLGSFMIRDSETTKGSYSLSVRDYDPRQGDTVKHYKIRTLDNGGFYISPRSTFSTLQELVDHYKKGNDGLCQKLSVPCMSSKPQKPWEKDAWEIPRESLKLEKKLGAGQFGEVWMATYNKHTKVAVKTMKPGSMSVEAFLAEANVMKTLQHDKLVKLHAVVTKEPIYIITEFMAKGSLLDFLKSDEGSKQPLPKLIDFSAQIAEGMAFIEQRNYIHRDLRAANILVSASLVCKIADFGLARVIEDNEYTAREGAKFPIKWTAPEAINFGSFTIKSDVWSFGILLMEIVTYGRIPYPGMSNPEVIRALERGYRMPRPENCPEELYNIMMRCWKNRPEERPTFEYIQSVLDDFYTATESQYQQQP
# Jak2 = Jak2 (UniProt O60674); assay: as above
# MERTK = MERTK (UniProt Q12866); assay: as above
# c-Abl (mouse) = assay: as above
# c-Src = assay: as above
# Grb2 SH2 = Grb2 SH2 (UniProt P62993); assay: SH2 binding enrichment of the phosphorylated peptide, bacterial display (enrichment ratio); higher = better substrate or ligand; peptides without Tyr show the background
# SHP2-C SH2 = assay: as above
# c-Src SH2 = assay: as above
# 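For SH2 binding enrichment of the phosphorylated peptide, bacterial display in this document: peptide library displayed on the E. coli surface as eCPX fusions, selected cells deep-sequenced, score is each peptide's frequency after selection divided by its frequency in the input.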
# 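For phosphorylation enrichment, bacterial display in this document: 11-residue human phosphosite peptides and single-mutation variants displayed on the E. coli surface, counted by deep sequencing, each peptide's frequency after selection divided by its frequency in the unselected input library; frequency after pTyr selection over input frequency; kinase dosed for 20-30% of maximal phosphorylation in three min.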
# Chain of FGFR1 (P11362 whole entry, looked up): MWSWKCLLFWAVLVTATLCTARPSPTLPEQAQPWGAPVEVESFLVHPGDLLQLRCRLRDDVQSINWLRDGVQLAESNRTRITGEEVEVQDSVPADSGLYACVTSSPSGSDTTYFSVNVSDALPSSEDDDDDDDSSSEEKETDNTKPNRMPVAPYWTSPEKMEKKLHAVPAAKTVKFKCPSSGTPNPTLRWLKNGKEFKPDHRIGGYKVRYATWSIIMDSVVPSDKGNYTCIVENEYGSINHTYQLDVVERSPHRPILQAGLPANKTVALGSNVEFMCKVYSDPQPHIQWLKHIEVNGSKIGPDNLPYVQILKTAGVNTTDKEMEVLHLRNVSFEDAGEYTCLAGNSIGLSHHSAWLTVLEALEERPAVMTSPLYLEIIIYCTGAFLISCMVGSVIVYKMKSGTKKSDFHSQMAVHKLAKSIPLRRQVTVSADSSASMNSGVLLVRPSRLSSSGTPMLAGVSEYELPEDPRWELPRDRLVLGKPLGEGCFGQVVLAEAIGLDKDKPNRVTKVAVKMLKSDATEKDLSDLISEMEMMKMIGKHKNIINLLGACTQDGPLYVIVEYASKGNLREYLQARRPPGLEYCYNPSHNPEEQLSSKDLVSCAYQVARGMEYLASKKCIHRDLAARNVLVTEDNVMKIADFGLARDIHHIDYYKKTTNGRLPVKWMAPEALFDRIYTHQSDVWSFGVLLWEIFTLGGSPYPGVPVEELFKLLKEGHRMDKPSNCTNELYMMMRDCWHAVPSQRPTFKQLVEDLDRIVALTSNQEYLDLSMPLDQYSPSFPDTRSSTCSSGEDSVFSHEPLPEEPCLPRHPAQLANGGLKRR
# Chain of EPHB1 (P54762 whole entry, looked up): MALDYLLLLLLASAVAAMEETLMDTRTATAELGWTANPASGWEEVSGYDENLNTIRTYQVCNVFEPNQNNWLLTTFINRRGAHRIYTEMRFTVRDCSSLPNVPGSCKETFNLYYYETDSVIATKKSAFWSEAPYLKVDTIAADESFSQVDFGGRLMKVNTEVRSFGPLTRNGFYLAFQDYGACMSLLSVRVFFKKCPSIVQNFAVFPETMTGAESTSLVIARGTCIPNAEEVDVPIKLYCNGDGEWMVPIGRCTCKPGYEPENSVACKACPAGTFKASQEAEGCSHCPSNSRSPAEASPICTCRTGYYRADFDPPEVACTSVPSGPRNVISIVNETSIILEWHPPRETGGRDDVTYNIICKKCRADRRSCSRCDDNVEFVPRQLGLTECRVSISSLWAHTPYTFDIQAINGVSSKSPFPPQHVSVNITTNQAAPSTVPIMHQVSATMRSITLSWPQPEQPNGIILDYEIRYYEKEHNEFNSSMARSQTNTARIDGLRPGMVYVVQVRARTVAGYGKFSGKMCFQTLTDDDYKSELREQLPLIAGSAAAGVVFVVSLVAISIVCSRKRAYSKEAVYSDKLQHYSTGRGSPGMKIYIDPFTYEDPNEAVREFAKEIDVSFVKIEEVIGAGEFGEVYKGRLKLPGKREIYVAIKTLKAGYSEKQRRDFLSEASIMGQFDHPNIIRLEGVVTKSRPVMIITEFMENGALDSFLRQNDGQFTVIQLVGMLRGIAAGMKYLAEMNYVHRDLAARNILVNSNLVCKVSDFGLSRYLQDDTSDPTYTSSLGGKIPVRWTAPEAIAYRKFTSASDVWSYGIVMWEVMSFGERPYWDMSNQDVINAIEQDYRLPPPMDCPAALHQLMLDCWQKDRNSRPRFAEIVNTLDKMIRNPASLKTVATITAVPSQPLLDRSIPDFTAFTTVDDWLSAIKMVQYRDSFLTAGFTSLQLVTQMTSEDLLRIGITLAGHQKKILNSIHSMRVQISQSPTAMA
# Chain of EPHB2 (P29323 whole entry, looked up): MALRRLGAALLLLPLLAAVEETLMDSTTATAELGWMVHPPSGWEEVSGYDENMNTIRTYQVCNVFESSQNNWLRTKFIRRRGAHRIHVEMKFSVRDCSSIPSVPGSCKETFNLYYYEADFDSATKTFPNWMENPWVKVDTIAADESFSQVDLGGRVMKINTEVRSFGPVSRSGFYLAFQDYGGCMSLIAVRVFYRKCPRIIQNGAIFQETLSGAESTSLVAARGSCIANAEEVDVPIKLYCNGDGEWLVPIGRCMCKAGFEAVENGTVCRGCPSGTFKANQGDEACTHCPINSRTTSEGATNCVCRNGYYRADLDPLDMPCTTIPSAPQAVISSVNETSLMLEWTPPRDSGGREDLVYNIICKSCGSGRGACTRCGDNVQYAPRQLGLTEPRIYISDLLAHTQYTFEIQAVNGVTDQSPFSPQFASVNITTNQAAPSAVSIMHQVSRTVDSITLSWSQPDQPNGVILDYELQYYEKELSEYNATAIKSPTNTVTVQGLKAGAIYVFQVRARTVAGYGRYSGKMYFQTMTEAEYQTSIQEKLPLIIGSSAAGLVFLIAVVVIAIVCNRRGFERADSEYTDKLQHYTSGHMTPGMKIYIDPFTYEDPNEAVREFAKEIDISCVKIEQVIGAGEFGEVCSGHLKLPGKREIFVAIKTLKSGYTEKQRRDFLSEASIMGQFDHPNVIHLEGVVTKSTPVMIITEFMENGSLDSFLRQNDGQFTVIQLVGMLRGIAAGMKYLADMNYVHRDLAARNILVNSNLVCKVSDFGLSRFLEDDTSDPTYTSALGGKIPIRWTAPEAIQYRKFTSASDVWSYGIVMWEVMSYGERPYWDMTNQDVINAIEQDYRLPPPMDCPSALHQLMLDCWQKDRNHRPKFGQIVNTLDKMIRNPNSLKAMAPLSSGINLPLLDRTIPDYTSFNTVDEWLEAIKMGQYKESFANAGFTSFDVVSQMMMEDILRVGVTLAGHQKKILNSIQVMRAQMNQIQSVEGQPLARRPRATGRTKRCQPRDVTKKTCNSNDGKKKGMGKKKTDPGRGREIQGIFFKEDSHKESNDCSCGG
SH2 binding enrichment (Grb2 SH2),SH2 binding enrichment (SHP2-C SH2),SH2 binding enrichment (c-Src SH2),Sequence,phosphorylation enrichment (AncSZ),phosphorylation enrichment (EPHB1),phosphorylation enrichment (EPHB2),phosphorylation enrichment (FGFR1),phosphorylation enrichment (FGFR3),phosphorylation enrichment (Fer (mouse)),phosphorylation enrichment (Fes),phosphorylation enrichment (Fyn),phosphorylation enrichment (Hck),phosphorylation enrichment (Jak2),phosphorylation enrichment (MERTK),phosphorylation enrichment (c-Abl (mouse)),phosphorylation enrichment (c-Src)
0.757,0.717,0.595,KVITDYFVDMK [MPP4_Y566_YF],0.897,0.429,0.547,0.748,0.795,0.451,1.36,0.455,0.561,0.858,0.439,0.673,0.435
0.641,0.793,0.568,KVKSIYFHTQG [AR_Y916_P914S],0.69,0.542,0.449,0.414,0.544,0.367,0.718,0.51,0.414,0.614,0.379,0.563,0.436
0.882,0.578,0.403,LAEMNYVHRDL [EPHB1_Y740],1.32,0.441,0.632,0.412,0.503,0.32,0.709,0.529,0.362,1.4,0.659,1.15,0.432
0.73,2.48,1.25,LAETSYVTVLE [MAGEA1_Y276_K278T],1.65,0.674,0.968,0.915,1.31,0.67,1.65,0.702,0.862,1.02,0.708,0.903,0.496
0.627,1.33,1.51,LAIERYVVVSK [RHO_Y136_C140S],0.86,0.499,3.45,0.843,0.701,0.459,1.04,0.596,0.443,0.744,0.515,0.935,0.396
0.93,0.576,0.431,LANNEYYFQVC,3.4,1.63,1.56,15.7,12.9,1.11,1.69,1.43,1.19,2.34,2.08,1.02,1.94
1.41,0.748,0.44,LARDIYKNDFF [ROS1_Y2110_YF],2.31,0.962,0.933,0.68,0.592,1.14,2.15,1.47,0.599,2.38,1.57,1.31,2.29
0.427,0.739,0.541,LARNMYDKEFF [MET_Y1230_D1228N_YF],1.03,0.706,0.592,0.602,0.62,0.541,1.01,0.529,0.694,1,0.578,0.793,0.626
1.11,0.989,0.692,LASLIYNFVLF [AQP6_Y231],1.73,1.93,4.52,3.53,3.34,14.5,2.2,7.62,5.89,1.51,7.85,4.1,7.23
0.597,0.695,0.37,LAVGDYMRRQK [ATM_Y1915_V1913G],0.696,0.441,0.41,0.437,0.411,0.504,0.734,0.545,0.504,0.691,0.476,0.555,0.503
0.953,0.836,0.521,LEDEVYAQKMK [TPM2_Y261],2.79,2.92,1.08,1.25,1.97,1.91,2.74,2.37,2.62,2.5,0.889,1.49,1.22
0.963,0.613,0.529,LEFGDCHPLKP [VPS35L_Y32_Y32C],1.63,0.863,0.802,0.763,1.52,1.24,1.97,0.841,0.777,1.16,0.472,0.884,0.602
0.85,0.831,0.432,LEKISYVFMKR [SSX7_Y48_YF],1.9,1.65,1.21,0.969,1.42,0.879,2.51,0.963,1.14,1.72,0.538,0.811,0.581
1.19,1.32,0.813,LFQAKYQIRFR [CRLF1_Y272_YF],1.83,0.698,0.69,1.03,1.35,0.972,1.6,0.643,0.524,1.64,0.868,1.31,1.02
0.989,0.842,0.554,LFSDHYSPSGR [TMPRSS12_Y23_YF],0.654,0.545,0.452,0.446,0.459,0.351,0.574,0.39,0.455,0.473,0.382,0.331,0.363
0.809,0.754,0.467,LGSVVYAHSKE [KCNQ2_Y226],0.527,0.473,0.437,0.445,0.419,0.416,0.596,0.407,0.403,0.559,0.424,0.449,0.413

SH2 binding enrichment (Grb2 SH2),SH2 binding enrichment (SHP2-C SH2),SH2 binding enrichment (c-Src SH2),Sequence,phosphorylation enrichment (AncSZ),phosphorylation enrichment (EPHB1),phosphorylation enrichment (EPHB2),phosphorylation enrichment (FGFR1),phosphorylation enrichment (FGFR3),phosphorylation enrichment (Fer (mouse)),phosphorylation enrichment (Fes),phosphorylation enrichment (Fyn),phosphorylation enrichment (Hck),phosphorylation enrichment (Jak2),phosphorylation enrichment (MERTK),phosphorylation enrichment (c-Abl (mouse)),phosphorylation enrichment (c-Src)
1.03,0.635,0.897,LHQSTYQRFDV [SLC7A14_Y693_YF],1.31,1.45,1.17,1.14,1.18,0.955,1.32,1.83,1.77,0.652,1.19,0.838,2.69
0.772,0.694,1.16,LHQSTYQRYDV [SLC7A14_Y693],0.341,0.293,0.53,0.236,0.426,0.392,0.404,0.458,0.505,0.545,0.364,0.444,1.11
0.887,0.881,0.39,LHSEAYLKFIE [PBRM1_Y1610_YF],1.56,0.877,0.881,0.939,1.21,1.1,1.51,0.856,0.813,1.37,0.556,0.886,0.486
1.69,1.88,1.71,LIHLHYIRKDY [BBS4_Y43],1.21,0.602,0.63,0.517,0.763,0.447,1.14,0.548,0.444,0.857,0.377,0.632,0.393
0.896,0.975,0.654,LKEIHYPPYTD [ALDH3B2_Y362],1.18,0.735,0.744,0.645,0.826,0.584,1.17,0.718,0.929,1.01,0.573,0.763,0.917
1.46,0.968,0.804,LKVQVYILGRE [ASS1_Y359_G356V],3.58,1.58,1.88,1.34,1.95,1.59,5.15,1.13,1.49,3.33,1.36,2.44,1.39
1.31,0.605,0.396,LLANAYIFVVQ [L1CAM_Y418_YF],1.46,0.757,1.13,1,1.18,0.793,2.13,0.606,0.569,1.79,0.482,1.44,0.538
0.939,1.11,0.44,LLINKYGLSDH [SCP2_Y151_A155D],1.08,0.646,0.62,0.546,0.849,0.709,1.45,0.678,0.826,1.19,0.645,0.794,0.712
0.96,0.793,0.566,LLKKVYLMLDN [STAT1_Y203_M202V],1.82,0.93,0.953,0.968,1.15,0.801,2.19,0.627,0.658,1.85,0.704,1.34,0.816
0.868,0.77,3.95,LNPDGYEKAFE [CPXM2_Y427_YF],1.15,0.667,0.988,0.769,0.704,0.557,1.49,0.576,0.586,0.995,0.483,1.05,0.738
0.744,0.613,0.444,LNPDGYKKAYE [CPXM2_Y427_E428K],0.905,0.605,0.749,0.86,1.46,0.619,1.14,0.676,0.515,1,0.734,1.35,0.513
0.69,0.734,0.624,LNPFIYSLRNC [OR1A2_Y288_W293C],1.45,0.826,1.24,0.902,1.2,1,2.72,4.37,5.22,1.11,1.04,0.792,6.28
0.798,0.738,0.521,LNPLIYTLRNA [OR4C46_Y285_K288R],1.79,0.576,0.9,0.922,0.863,1.03,1.12,4.69,7.15,1.31,1.97,1.76,6.62
0.77,1.37,0.629,LNPVVYTLRNA [OR4C12_Y285],1.26,0.761,0.636,0.593,0.69,0.856,1.09,0.635,1.27,1.5,0.971,1.2,1.92
0.727,0.708,0.44,LPQDGYRIVQH [PTPRT_Y1329_R1324L],0.672,0.402,0.423,0.403,0.55,0.408,0.809,0.43,0.418,0.575,0.361,0.716,0.346
0.698,0.508,0.655,LQEQNYPAVDS [FAM114A1_Y115_L116P],2.01,1.37,1.26,0.988,1.54,0.878,1.86,0.92,0.739,1.54,0.81,1.13,0.699

Sequence,SH2 binding enrichment (Grb2 SH2),SH2 binding enrichment (SHP2-C SH2),SH2 binding enrichment (c-Src SH2),phosphorylation enrichment (AncSZ),phosphorylation enrichment (EPHB1),phosphorylation enrichment (EPHB2),phosphorylation enrichment (FGFR1),phosphorylation enrichment (FGFR3),phosphorylation enrichment (Fer (mouse)),phosphorylation enrichment (Fes),phosphorylation enrichment (Fyn),phosphorylation enrichment (Hck),phosphorylation enrichment (Jak2),phosphorylation enrichment (MERTK),phosphorylation enrichment (c-Abl (mouse)),phosphorylation enrichment (c-Src)
KYLENYLNCLL [PLD2_Y169_R172C],0.983,0.835,0.747,1.1,1.18,0.776,0.989,1.05,0.707,1.47,0.476,0.456,1.28,0.52,1.03,0.498
